Data reported in patent US20250011468A1 (Novo Nordisk, published 2025).
One block for each binder: values may come before it.

Assays:
desGla-desEGF1-FX R113A = desGla-desEGF1-FX R113A (human, UniProt P00742 126-488); test: SPR (Biacore T200), antibody captured by anti-hIgG Fc, FX variant injected; % of wild-type binding
desGla-desEGF1-FX A118S = desGla-desEGF1-FX A118S (human, UniProt P00742 126-488); test: as above
desGla-desEGF1-FX H101A = desGla-desEGF1-FX H101A (human, UniProt P00742 126-488); test: as above
desGla-desEGF1-FX T127A = desGla-desEGF1-FX T127A (human, UniProt P00742 126-488); test: as above
desGla-desEGF1-FX K420A = desGla-desEGF1-FX K420A (human, UniProt P00742 126-488); test: as above
desGla-desEGF1-FX E228A = desGla-desEGF1-FX E228A (human, UniProt P00742 126-488); test: as above
desGla-desEGF1-FX R287A = desGla-desEGF1-FX R287A (human, UniProt P00742 126-488); test: as above
desGla-desEGF1-FX E305A = desGla-desEGF1-FX E305A (human, UniProt P00742 126-488); test: as above
desGla-desEGF1-FX L419A = desGla-desEGF1-FX L419A (human, UniProt P00742 126-488); test: as above
desGla-desEGF1-FX E103A = desGla-desEGF1-FX E103A (human, UniProt P00742 126-488); test: as above
desGla-desEGF1-FX S227A = desGla-desEGF1-FX S227A (human, UniProt P00742 126-488); test: as above
desGla-desEGF1-FX T428A = desGla-desEGF1-FX T428A (human, UniProt P00742 126-488); test: as above
desGla-desEGF1-FX E266A = desGla-desEGF1-FX E266A (human, UniProt P00742 126-488); test: as above
desGla-desEGF1-FX T116A = desGla-desEGF1-FX T116A (human, UniProt P00742 126-488); test: as above
desGla-desEGF1-FX F229A = desGla-desEGF1-FX F229A (human, UniProt P00742 126-488); test: as above
[1] = biological target: T1, wild-type desGla-desEGF1-FX (human, UniProt P00742 126-488); test: as above
T1 construct: Expressed in HEK293; also called WT; desGLA-desEGF1-hFX

desGla-desEGF1-FX Y230A = desGla-desEGF1-FX Y230A (human, UniProt P00742 126-488); test: SPR (Biacore T200), antibody captured by anti-hIgG Fc, FX variant injected (10 µM); % of wild-type binding
Protocol: Identification of hot-spot epitope residues was done using a Biacore T200 instrument at 25° C. Anti-hIgG Fc antibody from the Human Antibody Capture Kit (GE Healthcare, Catalogue #BR100839) at 2 μg/ml was immobilized on a Series S Sensor Chip CM5 (GE Healthcare, Catalogue #BR100530) using standard amine coupling chemistry. The anti-FX antibody mAb4-6934 (monovalent variant of mAb1-6723) was injected at the flow rate of 5 μL/min for 30 sec and captured by the immobilized anti-hIgG Fc antibody. […] Binding data were analyzed using steady-state fitting according to the 1:1 model in the Biacore Evaluation Software 2.0 supplied by GE Healthcare. Binding data are reported as % binding of FX variants to the anti-FX antibody (monovalent mAb1-6723) relative to binding of the wild-type FX to the anti-FX antibody at 5 or 10 μM FX variants injected and are calculated according to the formula: […]

[2] = biological target: T2, wild-type FIX with C-terminal His-tag (human, UniProt P00740 47-461); test: SPR (Biacore T200), His-tagged FIX captured by anti-His antibody, one-armed antibody as analyte; % of wild-type binding
T2 construct: Secreted mature FIX from expi293F cells; also called WT
Protocol: (§1) SPR analyses were carried out on Biacore 4000 or Biacore T200 instruments (Biacore AB, Uppsala, Sweden). For the experiments on the T200 instrument the following conditions were applied: measurements were conducted at a temperature of 25° C. Anti-His antibody at 25 μg/ml (R&D Systems, catalogue #MAB050) was immobilized on a CM5 sensor chip using standard amine coupling chemistry. […] at 25 nM were injected at a flow rate of 10 μl/min for 1 min and were captured via their His-tag by the immobilized anti-His antibody. Subsequently, 200 nM (with 4-fold serial dilutions), 1600 nM (with 3-fold serial dilutions), and 2000 nM (with 3-fold serial dilution) of mAb4-0004, mAb3-3279 and mAb4-0673, respectively, were injected at a flow rate of 50 μl/min for 5 min to allow for binding to captured FIX variant followed by a 10 min buffer injection allowing for dissociation of the monovalent anti-FIX antibodies. The running buffer used was 20 mM Tris, 150 mM NaCl, 5 mM CaCl₂, 0.05% Tween-20, 1 mg/ml BSA, pH 7.4. This was also used for dilution of anti-FIX antibody and FIX samples. Regeneration of the chip was achieved using 10 mM Glycine pH 2.0. Binding data were analysed according to a 1:1 model using BiaEvaluation 4.1 supplied by the manufacturer (Biacore AB, Uppsala, Sweden). A similar experimental set-up was used for the Biacore 4000 instrument.

[3] = biological target: FIX H257A with C-terminal His-tag (human, UniProt P00740 47-461); test: SPR (Biacore T200), His-tagged FIX variant captured by anti-His antibody, one-armed antibody as analyte; % of wild-type binding
Protocol: as §1
(§2) A more detailed binding analysis was conducted for residues defined as epitope residues (see example 6) using the Biacore T200 instrument.

[4] = biological target: FIX H256A with C-terminal His-tag (human, UniProt P00740 47-461); test: as above
Protocol: as §1, §2

[5] = biological target: FIX K293A with C-terminal His-tag (human, UniProt P00740 47-461); test: as above
Protocol: as §1, §2

[6] = biological target: FIX Y404F with C-terminal His-tag (human, UniProt P00740 47-461); test: as above
Protocol: as §1, §2

[7] = biological target: FIX N406A with C-terminal His-tag (human, UniProt P00740 47-461); test: as above
Protocol: as §1, §2

[8] = biological target: FIX R403A with C-terminal His-tag (human, UniProt P00740 47-461); test: as above
Protocol: as §1, §2

[9] = biological target: FIX E410Q with C-terminal His-tag (human, UniProt P00740 47-461); test: as above
Protocol: as §1, §2

[10] = biological target: FIX N258A with C-terminal His-tag (human, UniProt P00740 47-461); test: as above
Protocol: as §1, §2

[11] = biological target: FIX K411A with C-terminal His-tag (human, UniProt P00740 47-461); test: as above
Protocol: as §1, §2

[12] = biological target: T3, human plasma-derived FIXa (Haematologic Technologies Inc) (human, UniProt P00740 47-191; P00740 227-461); test: cell-based or functional assay
[13] = biological target: T3, human plasma-derived FIXa (Haematologic …); test: cell-based or functional assay; remark: listed apart in the source

T3 sequence (P00740 47-191, chain 1 of 2): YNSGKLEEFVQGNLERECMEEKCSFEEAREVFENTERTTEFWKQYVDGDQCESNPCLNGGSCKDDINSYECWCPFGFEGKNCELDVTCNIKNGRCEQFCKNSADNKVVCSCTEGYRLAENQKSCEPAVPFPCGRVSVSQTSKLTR
T3 sequence (P00740 227-461, chain 2 of 2): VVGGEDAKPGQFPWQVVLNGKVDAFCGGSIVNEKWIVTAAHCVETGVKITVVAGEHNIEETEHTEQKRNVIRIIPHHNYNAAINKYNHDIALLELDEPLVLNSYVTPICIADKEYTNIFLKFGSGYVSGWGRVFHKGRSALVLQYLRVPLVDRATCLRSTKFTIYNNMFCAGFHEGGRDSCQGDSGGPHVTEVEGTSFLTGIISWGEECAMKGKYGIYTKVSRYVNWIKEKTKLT
FIX N406A with C-terminal His-tag, sequence (P00740 other isoform, or with tags, fused parts or gaps N406A N406A limits assumed): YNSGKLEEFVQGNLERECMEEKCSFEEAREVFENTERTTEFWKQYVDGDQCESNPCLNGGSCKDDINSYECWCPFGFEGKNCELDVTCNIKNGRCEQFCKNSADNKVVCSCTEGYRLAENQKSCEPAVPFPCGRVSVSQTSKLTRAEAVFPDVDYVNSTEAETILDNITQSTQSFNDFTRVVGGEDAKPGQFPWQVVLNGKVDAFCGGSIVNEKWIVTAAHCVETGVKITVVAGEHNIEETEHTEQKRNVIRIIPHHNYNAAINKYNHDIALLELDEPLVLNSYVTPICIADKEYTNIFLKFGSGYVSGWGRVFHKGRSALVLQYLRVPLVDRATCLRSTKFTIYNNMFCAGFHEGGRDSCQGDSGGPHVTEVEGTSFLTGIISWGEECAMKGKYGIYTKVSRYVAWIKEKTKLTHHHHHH
desGla-desEGF1-FX T428A, sequence (P00742 other isoform, or with tags, fused parts or gaps T428A T428A): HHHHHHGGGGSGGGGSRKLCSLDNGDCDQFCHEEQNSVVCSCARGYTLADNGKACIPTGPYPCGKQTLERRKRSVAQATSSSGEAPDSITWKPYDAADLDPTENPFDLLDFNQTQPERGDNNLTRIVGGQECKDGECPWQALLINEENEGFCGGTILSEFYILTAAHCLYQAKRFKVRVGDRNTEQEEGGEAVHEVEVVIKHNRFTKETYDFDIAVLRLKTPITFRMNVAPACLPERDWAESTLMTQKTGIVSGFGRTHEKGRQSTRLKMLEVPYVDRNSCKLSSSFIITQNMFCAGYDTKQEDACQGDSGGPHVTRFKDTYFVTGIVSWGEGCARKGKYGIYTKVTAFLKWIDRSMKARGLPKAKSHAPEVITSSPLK
desGla-desEGF1-FX S227A, sequence (P00742 other isoform, or with tags, fused parts or gaps S227A S227A): as the sequence (P00742 other isoform, or with tags, fused parts or gaps T428A T428A) above, with S158A, A359T counted along it
desGla-desEGF1-FX F229A, sequence (P00742 other isoform, or with tags, fused parts or gaps F229A F229A): as the sequence (P00742 other isoform, or with tags, fused parts or gaps T428A T428A) above, with F160A, A359T counted along it
desGla-desEGF1-FX E266A, sequence (P00742 other isoform, or with tags, fused parts or gaps E266A E266A): as the sequence (P00742 other isoform, or with tags, fused parts or gaps T428A T428A) above, with E197A, A359T counted along it
desGla-desEGF1-FX E228A, sequence (P00742 other isoform, or with tags, fused parts or gaps E228A E228A): as the sequence (P00742 other isoform, or with tags, fused parts or gaps T428A T428A) above, with E159A, A359T counted along it
desGla-desEGF1-FX R113A, sequence (P00742 other isoform, or with tags, fused parts or gaps R113A R113A): as the sequence (P00742 other isoform, or with tags, fused parts or gaps T428A T428A) above, with R44A, A359T counted along it
FIX R403A with C-terminal His-tag, sequence (P00740 other isoform, or with tags, fused parts or gaps R403A R403A limits assumed): as the sequence (P00740 other isoform, or with tags, fused parts or gaps N406A N406A limits assumed) above, with R403A, A406N counted along it
FIX E410Q with C-terminal His-tag, sequence (P00740 other isoform, or with tags, fused parts or gaps E410Q E410Q limits assumed): as the sequence (P00740 other isoform, or with tags, fused parts or gaps N406A N406A limits assumed) above, with A406N, E410Q counted along it
desGla-desEGF1-FX Y230A, sequence (P00742 other isoform, or with tags, fused parts or gaps Y230A Y230A): as the sequence (P00742 other isoform, or with tags, fused parts or gaps T428A T428A) above, with Y161A, A359T counted along it
FIX K293A with C-terminal His-tag, sequence (P00740 other isoform, or with tags, fused parts or gaps K293A K293A limits assumed): as the sequence (P00740 other isoform, or with tags, fused parts or gaps N406A N406A limits assumed) above, with K293A, A406N counted along it

Binding (%) relative to wild-type (desGla-desEGF1-FX R113A): 28% | Binding (%) relative to wild-type (desGla-desEGF1-FX A118S): 102% | Binding (%) relative to wild-type (desGla-desEGF1-FX H101A): 51% | Binding (%) relative to wild-type (desGla-desEGF1-FX T127A): 113% | Binding (%) relative to wild-type (desGla-desEGF1-FX K420A): 23% | Binding (%) relative to wild-type (desGla-desEGF1-FX E228A): 80% | Binding (%) relative to wild-type (desGla-desEGF1-FX R287A): 66% | Binding (%) relative to wild-type (desGla-desEGF1-FX E305A): 97% | Binding (%) relative to wild-type (desGla-desEGF1-FX L419A): 50% | Binding (%) relative to wild-type (desGla-desEGF1-FX E103A): 71% | Binding (%) relative to wild-type (desGla-desEGF1-FX S227A): 66% | Binding (%) relative to wild-type (desGla-desEGF1-FX T428A): 81% | Binding (%) relative to wild-type (desGla-desEGF1-FX E266A): 112% | Binding (%) relative to wild-type (desGla-desEGF1-FX T116A): 114% | Binding (%) relative to wild-type (desGla-desEGF1-FX F229A): 99% | Binding (%) relative to wild-type [1]: 100% | Binding (%) relative to wild-type (desGla-desEGF1-FX Y230A): 1%
B1: mAb4-6934 (monovalent one-armed variant of mAb1-6723) (antibody, V domains shown)
VH: EVQLVQSGAEVKKPGESLRISCKGSGYSFTTSWIVWVRQMPGKGLEWMGMIDPSDSFTSYSPSFQGHVTISADKSISTAYLQWSSLKASDTAMYYCARLHYYHSEEFDVWGQGTLVTVSS
VL: EIVLTQSPGTLSLSPGERATLSCRASQSVSSSYLAWYQQKPGQAPRLLIYGASSRARGIPDRFSGSGSGTDFTLTISRLEPEDFAVYYCQQFGSSRLFTFGQGTKLEIK
notes: also called monovalent mAb1-6723

Binding (%) relative to wild-type [2]: 100% | Binding (%) relative to wild-type [3]: 8% | Binding (%) relative to wild-type [4]: 32% | Binding (%) relative to wild-type [5]: 23% | Binding (%) relative to wild-type [6]: 76% | Binding (%) relative to wild-type [7]: 12% | Binding (%) relative to wild-type [8]: 94% | Binding (%) relative to wild-type [9]: 39% | Binding (%) relative to wild-type [10]: 82% | Binding (%) relative to wild-type [11]: 71%
B2: mAb3-3279 (monovalent one-armed variant of mAb1-1307) (antibody, V domains shown)
VH: EVQLVESGGGLVQPGRSLRLSCAASGFTFGDYAMHWVRQAPGKGLEWVSGISWNSGSIGYADSVKGRFTISRDNAKNSLYLQMNSLRAEDTALYYCAKGQYDEDAGMDVWGQGTTVTVSS
VL: DIQMTQSPSSLSASVGDRVTITCRASQSISSYLNWYQQKPGKAPKLLIYAASSLQSGVPSRFSGSGSGTDFTLTISSLQPEDFATYYCQQGYPTWTFGGGTKVEIK

Peak stimulatory activity relative to 224F3 [12]: 21.7 fold relative to 224F3 | FXa generation rate at 3.2 nM mAb [13]: 434 pM/min | FXa generation rate at 6.3 nM mAb [13]: 415 pM/min | FXa generation rate at 12.5 nM mAb [13]: 385 pM/min | FXa generation rate at 25 nM mAb [13]: 382 pM/min | FXa generation rate at 50 nM mAb [13]: 352 pM/min | FXa generation rate at 100 nM mAb [13]: 364 pM/min | FXa generation rate at 200 nM mAb [13]: 411 pM/min
B3: mAb1-4861 (antibody, V domains shown)
VH: EVQLVESGGGLVQPGRSLKLSCAASGFTFDDYAMHWVRQVPGKGLEWVSGISWNGDNIGYVDSVKGRFTISRDNAKNSLYLQLNSLRAEDTALYYCVKSYGSGSFYNAFDSWGQGTLVTVSS
VL: DIQMTQSPSTLSASAGDRVTITCRASQSISSWLAWYQQKPGKAPKFLIYKASRLERGVPSRFSGSGSGTEFSLTISSLQPDDFATYYCLEYSSYIRTFGQGTKVEIK
